Measured values: article PMC4738012 (Journal of molecular biology, 2015)

Experiments:
Experiment in all cases: flow cytometry on cells
[1] = target: RMF peptide on HLA-A*02 of peptide-pulsed T2 cells (Homo sapiens, HLA-A*02:01, strain)
[2] = target: MED13L peptide … on HLA-A*02:01 of peptide-pulsed T2 cells (Homo sapiens, HLA-A*02:01 (T2 cells))
[3] = target: PIGQ peptide … on HLA-A*02:01 of peptide-pulsed T2 cells (Homo sapiens, HLA-A*02:01 (T2 cells))

binding result [1]: binds
binding result [2]: binds
binding result [3]: binds
B1: ESK1 full-length human IgG1 antibody (antibody, V domains shown)
VH: QMQLVQSGAEVKEPGESLRISCKGSGYSFTNFWISWVRQMPGKGLEWMGRVDPGYSYSTYSPSFQGHVTISADKSTSTAYLQWNSLKASDTAMYYCARVQYSGYYDWFDPWGQGTLVTVSS
VL: not shown
